Assay results: patent US20110111461A1 (Hoffmann-La Roche, published 2011)

Assays:
[1] = target: T1, human epidermal growth factor receptor (EGFR) (human, UniProt P00533 25-1210); assay: flow cytometry on A431 cells; light chain variants paired with I-HHD
T1 construct: whole, on cells; also called HER-1; ErbB1
Description: (§1) The purified, monomeric humanized antibody variants were tested for binding to human epidermal growth factor receptor (EGFR, also referred to in the literature as HER-1 or ErbB1) on the A431 human epidermal cell line, using a flow cytometry-based assay. 200,000 cells (e.g., from human A431 cell line) in 180 μl FACS buffer (PBS containing 2% FCS and 5 mM EDTA) were transferred to 5 ml polystyrene tubes and 20 μl 10 fold concentrated anti-EGFR antibody (primary antibody) samples (1-5000 ng/ml final concentration) or PBS only were added. After gently mixing the samples, the tubes were incubated at 4° C. for 30 min in the dark. Subsequently, samples were washed twice with FACS buffer and pelleted at 300×g for 3 min. Supernatant was aspirated off and cells were taken up in 50 μl FACS buffer and 2 μl secondary antibody (anti-Fc-specific F(ab′)2-FITC fragments (Jackson Immuno Research Laboratories, USA)) was added and the tubes were incubated at 4° C. for 30 min. Samples were washed twice with FACS buffer and taken up in 500 μl of FACS buffer for analysis by Flow Cytometry. Binding was determined by plotting the geometric mean fluorescence against the antibody concentrations.
Each of the I-KC variant constructs (I-KCl to I-KC9) was paired with a heavy chain variable region comprising construct I-HHD (SEQ ID NO:16 and SEQ ID NO:15) and a binding assay performed according to the methods described in the previous examples. Constructs I-KCl to I-KC9 were compared to the I-KC construct (SEQ ID NO:46 and SEQ ID NO:45) for binding affinity to EGFR in A431 target cells (FIG. 29). […] Therefore, when paired with a chimeric (e.g., humanized) heavy chain construct specific for EGFR, the light chain can be entirely human (e.g., from a human light chain V gene sequence) and still retain specific binding for EGFR. In particular, CDR2 and CDR3 can be entirely in human germline form.

[2] = target: T1, human epidermal growth factor receptor …; assay: flow cytometry on A431 cells; chain swap with ch-ICR62 (FIG. 1)
Description: as §1
Only the I-HHA has strongly diminished binding activity (see FIG. 2). […]

[3] = target: T1, human epidermal growth factor receptor …; assay: flow cytometry on A431 cells
Description: as §1
Only the I-HHA has strongly diminished binding activity (see FIG. 2). […] In this experiment, either the light chain, the heavy chain or both chains simultaneously of the ch-ICR62 were replaced by the above mentioned humanized constructs.

[4] = target: T1, human epidermal growth factor receptor …; assay: flow cytometry on A431 cells (FIG. 4)
Description: as §1
FIGS. 4 and 5 compare the constructs of the series I-HLA1, I-HLA2, I-HLA3, I-HLA4, I-HLA5, and I-HLA6. […]

Row | binding result [1] | Binder | also measured
1 | – | humanized ICR62 antibody I-HHD / I-KC3 (antibody, human IgG1, V domains shown) VH: QVQLVQSGAEVKKPGSSVKVSCKASGFTFTDYKIHWVRQAPGQGLEWMGYFNPNSGYSTYAQKFQGRVTITADKSTSTAYMELSSLRSEDTAVYYCARLSPGGYYVMDAWGQGTTVTVSS VL: DIQMTQSPSSLSASVGDRVTITCRASQGINNYLGWYQQKPGKAPKRLIYNTNNLQTGVPSRFSGSGSGTEFTLTISSLQPEDFATYYCLQHNSFPTFGQGTKLEIKR | EC50 fold increase relative to the I-KC construct [1]: 10 fold
2 | – | chimeric ICR62 heavy chain (rVH) combined with the I-KB light chain (antibody, human IgG1, V domains shown, also called rVH / I-KB) VH: QVNLLQSGAALVKPGASVKLSCKGSGFTFTDYKIHWVKQSHGKSLEWIGYFNPNSGYSTYNEKFKSKATLTADKSTDTAYMELTSLTSEDSATYYCTRLSPGGYYVMDAWGQGASVTVSS VL: DIQMTQSPSSLSASVGDRVTITCKASQNINNYLNWYQQKPGKAPKRLIYNTNNLQTGVPSRFSGSGSGTEYTLTISSLQPEDFATYYCLQHNSFPTFGQGTKLEIKR | binding result [2]: binds
3 | binds | humanized ICR62 antibody I-HHD / I-KC5 (antibody, human IgG1, V domains shown) VH: QVQLVQSGAEVKKPGSSVKVSCKASGFTFTDYKIHWVRQAPGQGLEWMGYFNPNSGYSTYAQKFQGRVTITADKSTSTAYMELSSLRSEDTAVYYCARLSPGGYYVMDAWGQGTTVTVSS VL: DIQMTQSPSSLSASVGDRVTITCRASQGINNYLNWYQQKPGKAPKRLIYNANNLQTGVPSRFSGSGSGTEFTLTISSLQPEDFATYYCLQHNSFPTFGQGTKLEIKR | –
4 | binds | humanized ICR62 antibody I-HHD / I-KC9 (antibody, human IgG1, V domains shown) VH: QVQLVQSGAEVKKPGSSVKVSCKASGFTFTDYKIHWVRQAPGQGLEWMGYFNPNSGYSTYAQKFQGRVTITADKSTSTAYMELSSLRSEDTAVYYCARLSPGGYYVMDAWGQGTTVTVSS VL: DIQMTQSPSSLSASVGDRVTITCRASQGINNYLNWYQQKPGKAPKRLIYNTNNLQTGVPSRFSGSGSGTEFTLTISSLQPEDFATYYCLQHNSYPTFGQGTKLEIKR | –
5 | binds | humanized ICR62 antibody I-HHD / I-KC8 (antibody, human IgG1, V domains shown) VH: QVQLVQSGAEVKKPGSSVKVSCKASGFTFTDYKIHWVRQAPGQGLEWMGYFNPNSGYSTYAQKFQGRVTITADKSTSTAYMELSSLRSEDTAVYYCARLSPGGYYVMDAWGQGTTVTVSS VL: DIQMTQSPSSLSASVGDRVTITCRASQGINNYLNWYQQKPGKAPKRLIYNTNNLQSGVPSRFSGSGSGTEFTLTISSLQPEDFATYYCLQHNSFPTFGQGTKLEIKR | –
6 | binds | humanized ICR62 antibody I-HHD / I-KC4 (antibody, human IgG1, V domains shown) VH: QVQLVQSGAEVKKPGSSVKVSCKASGFTFTDYKIHWVRQAPGQGLEWMGYFNPNSGYSTYAQKFQGRVTITADKSTSTAYMELSSLRSEDTAVYYCARLSPGGYYVMDAWGQGTTVTVSS VL: DIQMTQSPSSLSASVGDRVTITCRASQGINNYLNWYQQKPGKAPKRLIYTTNNLQTGVPSRFSGSGSGTEFTLTISSLQPEDFATYYCLQHNSFPTFGQGTKLEIKR | –
7 | binds | humanized ICR62 antibody I-HHD / I-KC7 (antibody, human IgG1, V domains shown) VH: QVQLVQSGAEVKKPGSSVKVSCKASGFTFTDYKIHWVRQAPGQGLEWMGYFNPNSGYSTYAQKFQGRVTITADKSTSTAYMELSSLRSEDTAVYYCARLSPGGYYVMDAWGQGTTVTVSS VL: DIQMTQSPSSLSASVGDRVTITCRASQGINNYLNWYQQKPGKAPKRLIYNTNSLQTGVPSRFSGSGSGTEFTLTISSLQPEDFATYYCLQHNSFPTFGQGTKLEIKR | –
8 | binds | humanized ICR62 antibody I-HHD / I-KC6 (antibody, human IgG1, V domains shown) VH: QVQLVQSGAEVKKPGSSVKVSCKASGFTFTDYKIHWVRQAPGQGLEWMGYFNPNSGYSTYAQKFQGRVTITADKSTSTAYMELSSLRSEDTAVYYCARLSPGGYYVMDAWGQGTTVTVSS VL: DIQMTQSPSSLSASVGDRVTITCRASQGINNYLNWYQQKPGKAPKRLIYNTSNLQTGVPSRFSGSGSGTEFTLTISSLQPEDFATYYCLQHNSFPTFGQGTKLEIKR | –
9 | – | chimeric rat-human ICR62 antibody (antibody, V domains shown, also called ch-ICR62; chimeric ICR62) VH: QVNLLQSGAALVKPGASVKLSCKGSGFTFTDYKIHWVKQSHGKSLEWIGYFNPNSGYSTYNEKFKSKATLTADKSTDTAYMELTSLTSEDSATYYCTRLSPGGYYVMDAWGQGASVTVSS VL: DIQMTQSPSFLSASVGDRVTINCKASQNINNYLNWYQQKLGEAPKRLIYNTNNLQTGIPSRFSGSGSGTDYTLTISSLQPEDFATYFCLQHNSFPTFGAGTKLELKR | EC50 [3]: ~0.3 µg/mL; EC50 fold lower relative to I-HLA4 [4]: 2 fold
